Reference: the supplement of paper PMC6757056
± gives the standard deviation of the averaged measurements.

B1: library; a variant is named by its letters at N, in order (parent)
chain: GCUGUCACCGGUGCUUGGUACGUUAUAUUCAGCCGGUCUGAUGAGUCUNNNNNNAGACGAAACAGC

Assays:
(6R,S)-folinic acid [1] = variants of: B1; assay: normalized RNA/DNA level without ligand (relative to sTRSVctl = 100) (log10 (% of sTRSVctl)); HEK293T overexpressing SLC46A1; higher = less ribozyme self-cleavage, higher mRNA level; details: without (6R,S)-folinic acid; ligand present: no
In short: (§1)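 Total RNA, extracted with EDTA 72 h after HEK293T cells were transfected with 4 µg per 6-well well of reporter-linked ribozyme switch library plasmids, was reverse-transcribed, amplified, barcoded and sequenced. Ligand, if used, was added 1 h before transfection. RNA level was derived from RNA reads divided by DNA reads and normalized to a spiked-in non-cleaving sequence or to the top sequences. This was multiplied by 100 and log10-transformed, with the top set of 25 sequences and a ≥100 DNA read minimum.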

(6R,S)-folinic acid [2] = variants of: B1; assay: normalized RNA/DNA level with ligand (relative to sTRSVctl = 100) (log10 (% of sTRSVctl)); HEK293T overexpressing SLC46A1; ligand concentration (+) RNA-Seq: 6 mM; higher = less ribozyme self-cleavage, higher mRNA level; details: with (6R,S)-folinic acid; ligand present: yes
In short: as §1

| Variant | normalized RNA/DNA level without ligand (log10) ((6R,S)-folinic acid [1]) | normalized RNA/DNA level with ligand (log10) ((6R,S)-folinic acid [2]) |
| --- | --- | --- |
| AAGUCA | 1.969 ± 0.0021 | 1.98 ± 0.029 |
| AAGUCC | 2 ± 0.023 | 2.01 ± 0.024 |
| AAGUCU | 2.066 ± 0.015 | 2.0681 ± 0.0013 |
| CAGACG | 2.028 ± 0.0044 | 2.009 ± 0.0054 |
| CAGACU | 2.048 ± 0.0077 | 2.011 ± 0.0042 |
| UAGAUC | 2.0543 ± 0.0014 | 2.06 ± 0.055 |
| UAGAUA | 1.961 ± 0.0041 | 2.01 ± 0.025 |
| UAGAUU | 1.98 ± 0.0065 | 2.01 ± 0.047 |
| UAUAUU | 1.9864 ± 0.0015 | 2.01 ± 0.042 |
| UAUAUA | 1.944 ± 0.0099 | 2 ± 0.034 |
| UAUAUC | 2.027 ± 0.0026 | 2.01 ± 0.036 |
| AACUUC | 2.063 ± 0.0082 | 2.039 ± 0.014 |
| AACUUU | 2.01 ± 0.022 | 2.01 ± 0.022 |
| CAUCAG | 1.97 ± 0.039 | 1.97 ± 0.021 |
| CAUCAU | 2.02 ± 0.052 | 2 ± 0.072 |
| CAUCAA | 1.977 ± 0.0041 | 1.97 ± 0.021 |
| CAUCAC | 2.03 ± 0.0083 | 2 ± 0.071 |
| GACUAA | 1.977 ± 0.008 | 1.98 ± 0.043 |
| UAGCCA | 2.034 ± 0.011 | 2.046 ± 0.019 |
| UAGCCC | 2.0516 ± 0.00055 | 2.03 ± 0.006 |
| AAGGGC | 2.0351 ± 4.5e-05 | 2.05 ± 0.045 |
| AAGGGG | 1.902 ± 0.011 | 2.038 ± 0.011 |
| CAGAGC | 2.013 ± 0.01 | 2.01 ± 0.028 |
| CAGAGA | 1.999 ± 0.019 | 2.01 ± 0.045 |
| CAGAGU | 1.996 ± 0.0082 | 2.02 ± 0.035 |
| UAGUAC | 1.972 ± 0.002 | 2.01 ± 0.048 |
| AACUCA | 2.03 ± 0.0039 | 2.003 ± 0.016 |
| AACUCC | 2.06 ± 0.031 | 2.01 ± 0.032 |
| AACUCU | 2.0187 ± 0.0003 | 2.02 ± 0.031 |
